From US20200390811A1

Tested on: RISR-RIAD peptide with myc and ddk (FLAG) tags, expressed in T cells
Sequence (chain, as listed by the source): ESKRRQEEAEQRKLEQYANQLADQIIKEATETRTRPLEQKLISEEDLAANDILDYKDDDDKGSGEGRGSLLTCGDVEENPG

## Protein kinase A (PKA), RI regulatory subunit
  phosphorylation of Csk-S364 and Lck-Y505 (blot, FIG. 2): RISR-RIAD expression prevented phosphorylation of Csk-S364 and Lck-Y505
